Results published in publication PMC3997432, “A Truncated Form of Rod Photoreceptor PDE6 β-Subunit Causes Autosomal Dominant Congenital Stationary Night Blindness by Interfering with the Inhibitory Activity of the γ-Subunit” (PLoS ONE, 2014).
No end group written: not given here. *: point of attachment. BC = 3-(bromoacetyl)-7-diethyl-aminocoumarin, CCN(CC)c1ccc2cc(C(=O)C*)c(=O)oc2c1

B1: Recombinant bovine rod Pγ-subunit (PDE6 inhibitory γ-subunit) (natural protein)
chain: MNLEPPKAEIRSATRVMGGPVTPRKGPPKFKQRQTRQFKSKPPKKGVQGFGDDIPGMEGLGTDITVICPWEAFNHLELHELAQYGII
B2: CysBC-Pγ24-45 (Cys-Pγ24-45 peptide labeled at the N-terminal Cys with 3-(bromoacetyl)-7-diethyl-aminocoumarin) (peptide)
peptide: C(BC)RKGPPKFKQRQTRQFKSKPPKK
notes: Cys added at the N-terminus of the peptide to carry the probe (Cys-Pγ24-45); also called fluorescently labeled Pγ24-45; polycationic region of Pγ; source: synthetic peptide

Tests used:
[1] = biological target: trypsin-activated bovine PDE6 (tPDE6), PDE6αβ catalytic subunits lacking the inhibitory Pγ subunits (bovine) (UniProt P11541)
trypsin-activated bovine PDE6 (tPDE6), PDE6αβ catalytic subunits lacking the inhibitory Pγ subunits (bovine), sequence (P11541 whole entry, chain 1 of 2): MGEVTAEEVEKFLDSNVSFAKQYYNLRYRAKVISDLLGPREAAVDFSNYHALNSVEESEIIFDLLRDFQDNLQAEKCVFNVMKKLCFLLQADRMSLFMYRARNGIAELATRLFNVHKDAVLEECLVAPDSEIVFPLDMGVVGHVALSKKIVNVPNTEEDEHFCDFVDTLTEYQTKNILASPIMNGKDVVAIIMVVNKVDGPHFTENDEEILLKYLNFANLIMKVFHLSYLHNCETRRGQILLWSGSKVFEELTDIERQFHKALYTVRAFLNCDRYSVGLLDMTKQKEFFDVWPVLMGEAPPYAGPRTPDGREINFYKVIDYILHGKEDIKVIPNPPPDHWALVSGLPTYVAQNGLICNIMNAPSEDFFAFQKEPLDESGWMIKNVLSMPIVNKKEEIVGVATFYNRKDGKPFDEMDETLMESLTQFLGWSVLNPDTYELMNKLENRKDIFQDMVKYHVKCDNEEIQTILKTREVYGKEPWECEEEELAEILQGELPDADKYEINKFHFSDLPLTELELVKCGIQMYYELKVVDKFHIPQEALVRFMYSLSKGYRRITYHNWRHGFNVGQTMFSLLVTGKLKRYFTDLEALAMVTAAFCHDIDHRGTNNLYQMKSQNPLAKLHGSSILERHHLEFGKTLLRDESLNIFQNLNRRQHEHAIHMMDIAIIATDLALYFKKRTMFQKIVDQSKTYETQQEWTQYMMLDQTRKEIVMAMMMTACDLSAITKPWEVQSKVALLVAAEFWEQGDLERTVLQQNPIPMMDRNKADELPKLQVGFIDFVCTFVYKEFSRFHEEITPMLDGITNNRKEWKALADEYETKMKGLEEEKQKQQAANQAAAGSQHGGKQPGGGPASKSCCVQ
trypsin-activated bovine PDE6 (tPDE6), PDE6αβ catalytic subunits lacking the inhibitory Pγ subunits (bovine), sequence (P23439 whole entry, chain 2 of 2, further chain): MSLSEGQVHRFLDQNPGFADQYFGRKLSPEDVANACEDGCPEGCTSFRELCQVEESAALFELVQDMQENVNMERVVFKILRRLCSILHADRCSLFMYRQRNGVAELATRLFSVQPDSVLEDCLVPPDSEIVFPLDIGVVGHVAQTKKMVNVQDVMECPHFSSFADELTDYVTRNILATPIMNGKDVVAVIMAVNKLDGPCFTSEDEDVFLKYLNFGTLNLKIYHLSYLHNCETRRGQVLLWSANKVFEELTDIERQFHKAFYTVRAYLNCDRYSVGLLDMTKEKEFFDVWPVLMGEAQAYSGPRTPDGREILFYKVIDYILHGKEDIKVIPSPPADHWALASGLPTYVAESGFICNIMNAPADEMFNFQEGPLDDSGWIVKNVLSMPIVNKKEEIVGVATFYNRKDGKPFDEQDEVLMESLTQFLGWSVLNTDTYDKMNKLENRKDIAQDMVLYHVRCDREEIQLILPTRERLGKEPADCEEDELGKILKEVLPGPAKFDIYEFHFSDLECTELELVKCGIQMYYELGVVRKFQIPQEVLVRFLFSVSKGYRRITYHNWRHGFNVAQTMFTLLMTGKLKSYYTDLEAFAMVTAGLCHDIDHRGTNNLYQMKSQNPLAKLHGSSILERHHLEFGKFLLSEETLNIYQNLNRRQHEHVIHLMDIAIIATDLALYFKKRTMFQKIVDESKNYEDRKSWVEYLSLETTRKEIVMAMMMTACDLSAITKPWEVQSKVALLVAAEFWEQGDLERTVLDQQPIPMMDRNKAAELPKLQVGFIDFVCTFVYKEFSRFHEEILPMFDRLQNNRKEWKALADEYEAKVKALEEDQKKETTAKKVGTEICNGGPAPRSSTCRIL

[2] = biological target: T1, PDE6β1-313 (PDE6-specific N-terminal portion of the human rod cGMP phosphodiesterase type 6 β-subunit … (human, UniProt P35913-1 1-313)); test: other fluorescence titration; CysBC-Pγ24-45 (50 nM) in 1 ml of 100 mM PBS buffer (pH 7.5), increasing concentrations of PDE6β1-313 added; excitation 445 nm, emission 490 nm; fit to a hyperbola; conditions: both partners purified
T1 construct: rod cGMP phosphodiesterase type 6 β-subunit (PDE6β), human, residues 1-313; contains the GAFa domain and a portion of the GAFb domain; amplified from a human retinal cDNA library; Cloned into pET15b with NdeI/BamHI; no removal of the tag is described; also called His6-tagged PDE6β1-313; truncated PDE6β
T1 sequence (P35913 1-313, stated change not applied): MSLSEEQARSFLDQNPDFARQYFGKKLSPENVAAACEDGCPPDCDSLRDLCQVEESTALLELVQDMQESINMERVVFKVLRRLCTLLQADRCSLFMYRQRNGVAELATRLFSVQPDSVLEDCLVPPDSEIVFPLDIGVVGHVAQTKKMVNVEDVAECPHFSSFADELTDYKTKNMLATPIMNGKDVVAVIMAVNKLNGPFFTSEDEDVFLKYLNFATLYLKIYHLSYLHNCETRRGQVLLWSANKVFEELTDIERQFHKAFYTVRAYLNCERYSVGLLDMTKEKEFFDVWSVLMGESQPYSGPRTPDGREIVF

Binder	IC50 of the inhibition of tPDE6 (50 pM) activity ([3H]cGMP hydrolysis) by increasing concentrations of Pγ, in the absence of PDE6β1-313 [1]	IC50 of the inhibition of tPDE6 (50 pM) activity ([3H]cGMP hydrolysis) by increasing concentrations of Pγ, in the presence of 2 µM PDE6β1-313 [1]	Kd [2]
B1	0.53 nM	1.6 nM	–
B2	–	–	320 nM
